B1: KIR3DL2 expressed on cells (receptor, human, UniProt P43630 22-455, looked up)
chain: LMGGQDKPFLSARPSTVVPRGGHVALQCHYRRGFNNFMLYKEDRSHVPIFHGRIFQESFIMGPVTPAHAGTYRCRGSRPHSLTGWSAPSNPLVIMVTGNHRKPSLLAHPGPLLKSGETVILQCWSDVMFEHFFLHREGISEDPSRLVGQIHDGVSKANFSIGPLMPVLAGTYRCYGSVPHSPYQLSAPSDPLDIVITGLYEKPSLSAQPGPTVQAGENVTLSCSSWSSYDIYHLSREGEAHERRLRAVPKVNRTFQADFPLGPATHGGTYRCFGSFRALPCVWSNSSDPLLVSVTGNPSSSWPSPTEPSSKSGICRHLHVLIGTSVVIFLFILLLFFLLYRWCSNKKNAAVMDQEPAGDRTVNRQDSDEQDPQEVTYAQLDHCVFIQRKISRPSQRPKTPLTDTSVYTELPNAEPRSKVVSCPRAPQSGLEGVF
notes: whole, on cells; on CT26 cells (vector with thy1.1 tag)
B2: IGSF8 protein without D1 domain (ligand, human, UniProt Q969P0 150-579, looked up)
chain: PDVLQVSAAPPGPRGRQAPTSPPRMTVHEGQELALGCLARTSTQKHTHLAVSFGRSVPEAPVGRSTLQEVVGIRSDLAVEAGAPYAERLAAGELRLGKEGTDRYRMVVGGAQAGDAGTYHCTAAEWIQDPDGSWAQIAEKRAVLAHVDVQTLSSQLAVTVGPGERRIGPGEPLELLCNVSGALPPAGRHAAYSVGWEMAPAGAPGPGRLVAQLDTEGVGSLGPGYEGRHIAMEKVASRTYRLRLEAARPGDAGTYRCLAKAYVRGSGTRLREAASARSRPLPVHVREEGVVLEAVAWLAGGTVYRGETASLLCNISVRGGPPGLRLAASWWVERPEDGELSSVPAQLVGGVGQDGVAELGVRPGGGPVSVELVGPRSHRLRLHSLGPEDEGVYHCAPSAWVQHADYSWYQAGSARSGPVTVYPYMHALDT
notes: domain: D2-4; also called D24; D2-4

How the values were obtained:
[1] = target: T1, recombinant human IGSF8 extracellular domain tagged by a human Fc region (IGSF8-hFc) (human, UniProt Q969P0 28-579, biotin label in Examples 17, 18 and 28 (site not given)); assay: FACS, biotin-labelled IGSF8-hFc on CT26 cells expressing the KIR, MFI normalized to Thy1.1
T1 construct: also called IGSF8-Fc fusion protein; IGSF8-hFc-biotin; not shown: human Fc region
T1 sequence: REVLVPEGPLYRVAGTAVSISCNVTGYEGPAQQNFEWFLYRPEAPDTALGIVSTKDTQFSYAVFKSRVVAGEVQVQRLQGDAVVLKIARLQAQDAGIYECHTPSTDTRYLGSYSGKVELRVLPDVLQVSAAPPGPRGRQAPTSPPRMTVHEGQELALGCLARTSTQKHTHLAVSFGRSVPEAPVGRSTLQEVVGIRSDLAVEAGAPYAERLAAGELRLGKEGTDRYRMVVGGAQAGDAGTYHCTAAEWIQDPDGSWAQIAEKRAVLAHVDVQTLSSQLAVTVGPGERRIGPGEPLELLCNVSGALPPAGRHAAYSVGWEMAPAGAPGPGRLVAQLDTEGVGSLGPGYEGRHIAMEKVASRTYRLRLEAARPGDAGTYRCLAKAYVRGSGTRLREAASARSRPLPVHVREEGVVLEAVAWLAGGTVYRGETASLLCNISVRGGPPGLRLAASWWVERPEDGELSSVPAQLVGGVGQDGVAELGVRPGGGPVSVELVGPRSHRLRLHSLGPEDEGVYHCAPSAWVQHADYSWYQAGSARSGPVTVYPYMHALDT
Protocol: For this experiment, different human KIR receptors (KIR2DL1, KIR2DL2, KIR2DL3, KIR2DL4, KIR2DL5A, KIR2DL5B, KIR3DL1, KIR3DL2, KIR3DL3) were first cloned into a proprietary lentiviral vector containing a thy1.1 tag (FIG. 17A). Then mouse CT26 cells, were transducted by these lentiviral constructs, and IGSF8 binding was tested with biotin-labelled recombinant IGSF8 hFc fusion protein. The mean fluorescence intensity (MFI) of IGSF8 binding to different CT26 cells were normalized by the expression of different KIRs on CT26 cells using an anti-thy1.1 mAb (Biolegend) via flow cytometry.
(§1) KLRC1 also contains a ITIM motif in its intracellular domain, and was known to be a inhibitory receptor of NK or CD8⁺ T cells as part of a heterodimer with KLRD1 on the cell surface. […] Specifically, 100,000 CT26 cells overexpressing the antigens (KIRs or KLRs) were washed with PBS buffer containing 2% FBS, and incubated with 100 μL IGSF8 recombinant proteins or antibodies (5 μg/mL) for 30 minutes on ice. Cells were then washed twice with wash buffer, and incubated with 100 μL of 1:100 anti-human Fc-PE antibody for 15 minutes on ice. Cells were washed twice with wash buffer and analyzed on a FACS analyzer (CytoFlex, Beckman). In these experiments, the mean fluorescence intensity (MFI) of IGSF8 binding to different CT26 cells were normalized by the expression of different KLRs on CT26 cells using an anti-thy1.1 mAb via flow cytometry.

[2] = target: T2, human IGSF8 expressed on the cell surface (human, UniProt Q969P0 28-613); assay: FACS cell-cell conjugate assay, CFSE-labelled MC38-IGSF8 mixed 1:1 with Far Red-labelled CT26-KIR3DL2
T2 construct: whole, on cells; also called human IGSF8 on CT26 cells; IGSF8 on MC38 cells
T2 sequence (looked up): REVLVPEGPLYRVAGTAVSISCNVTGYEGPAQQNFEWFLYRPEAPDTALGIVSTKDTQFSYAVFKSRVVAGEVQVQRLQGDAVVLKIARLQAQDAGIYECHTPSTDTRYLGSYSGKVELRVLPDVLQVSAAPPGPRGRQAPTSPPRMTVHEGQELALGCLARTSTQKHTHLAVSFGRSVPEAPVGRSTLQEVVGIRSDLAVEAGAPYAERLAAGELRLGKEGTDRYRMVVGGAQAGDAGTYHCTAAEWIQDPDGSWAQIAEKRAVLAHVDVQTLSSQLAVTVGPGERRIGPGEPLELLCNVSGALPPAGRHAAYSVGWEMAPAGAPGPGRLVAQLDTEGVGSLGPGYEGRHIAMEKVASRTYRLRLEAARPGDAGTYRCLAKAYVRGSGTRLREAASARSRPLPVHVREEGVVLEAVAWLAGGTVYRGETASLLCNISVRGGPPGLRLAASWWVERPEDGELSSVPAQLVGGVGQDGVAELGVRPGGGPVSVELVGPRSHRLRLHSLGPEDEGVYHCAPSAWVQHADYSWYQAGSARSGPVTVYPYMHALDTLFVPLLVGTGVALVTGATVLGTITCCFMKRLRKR
Protocol: FIG. 23A is a diagram of two embodiments of an antibody blocking assay. In the left panel, CT26 cells expressing ligand IGSF8 are treated with soluble and biotin labelled receptor (KIR3DL1/2) and anti-IGSF8 mAbs, and subsequently, bound receptor is detected with PE-streptavidin. In the right panel, MC38 cells expressing the IGSF8 ligand are contacted with KLR- or KIR-receptor-expressing CT26 cells, and anti-IGSF8 antibodies capable of blocking MC38-CT26 cell/cell conjugates will reduce the formation of the FACS-detectable conjugate.
A competition assay (FIG. 23A) was then designed to test whether these seven mAbs block IGSF8 binding to the KIR3DL1/2 or the KLRC1&D1 heterodimer receptors. MC38 cells (a cell line derived from C57BL6 murine colon adenocarcinoma cells from NIH) with forced expression of IGSF8 protein on cell surface by lentiviral delivery of a human IGSF8-expression construct were labeled with CFSE (Carboxyfluorescein succinimidyl ester, Thermo). CT26 cells with forced expression of either KIR3DL1/2 or KLRC1&D1 were labeled with CellTrace Far Red (Thermo). The MC38 cells were then mixed at a 1:1 ratio with the CT26 cells for about an hour at room temperature. The formation of MC38 and CT26 cell/cell conjugates was assessed by flow cytometry.

[3] = target: B1; assay: FACS, hFc-tagged proteins on CT26 cells expressing the receptor, MFI normalized to Thy1.1
Protocol: as §1

## B1
[1]
  binding result: binds
[2]
  binding result: binds

## B2
[3]
  binding result: no binding
